Results as given in paper PMC8610173.

Target: NF-Y (NF-YA confirmed by supershift) ((K562 cells)) (UniProt P23511)
Assay: EMSA

Chain of NF-Y (NF-YA confirmed by supershift) ((K562 cells)) (P23511 whole entry): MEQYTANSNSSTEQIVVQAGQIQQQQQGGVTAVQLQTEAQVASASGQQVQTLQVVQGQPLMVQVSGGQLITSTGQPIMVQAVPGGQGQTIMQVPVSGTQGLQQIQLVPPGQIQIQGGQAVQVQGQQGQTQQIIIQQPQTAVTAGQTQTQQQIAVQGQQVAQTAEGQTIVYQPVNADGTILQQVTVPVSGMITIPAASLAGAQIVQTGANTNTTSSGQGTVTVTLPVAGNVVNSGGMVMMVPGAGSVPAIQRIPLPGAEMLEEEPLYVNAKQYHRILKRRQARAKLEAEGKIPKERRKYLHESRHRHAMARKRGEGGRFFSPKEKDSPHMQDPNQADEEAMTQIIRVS

AGCCTTGCCTTGACCAATCGCCTTGACAA (double strand) [HBG distal CCAAT box -110 A>C]
binding signal (fold of WT band intensity): 1.5

AGCCTTGCCTTGACCAATAGCCTTGACAA (double strand) [HBG distal CCAAT box WT]
binding signal (fold of WT band intensity (reference)): 1
